# Experiment: yeast display, Sf9 membrane polyspecificity reagent, FACS + sequencing; frameworks hold sequencing errors
# Summary of the method: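 Sorting gates, low and high (top ~1%), were placed on anti-HA fluorescence to track expression and on streptavidin fluorescence to track reagent binding. A clone's polyreactivity label is taken from the gate it came out of. The reagent was 10% biotinylated, detergent-solubilized Sf9 membrane, applied for 1 hour at 4 °C to galactose-induced yeast display cells.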
row,Sequence,polyreactivity (PSR sort gate)
1,QVQLVESGGGLVQAGGSLRLSCAASGSIFSSYAMGWYRQAPGKERELVAAISQSGGDTYYADSVKGRFTISRDNAKNTVYLQMNSLKPEDTAVYYCAASVWYYPMDYWGKGTQVTVSS,low polyreactivity
2,QVQLGESGGGLVQAGGSVRLSCAASGSTFWVNAMGWYRQAPGKERELVAAISNSGGSTYYADSVKGRFTISRDNAKNTVYLQMNSLKPEDTAVYYCAAAGGVDYDYWGQGTQVTVSS,low polyreactivity
3,QVQLVESGGGLVQAGGSLRLSCASSGTIFSWYTMGRYRQAPGKERELVARITTSGGTTRYADSVKGRFTISRDNAKNTVYFQINSLKPEDTAVYYCAADRSPYWRGYFRYNYWGQGSQVTVSS,high polyreactivity
4,QLQLVESGGGLVQAGGSLRLSCAASGSIFYQYVMGWYRQAPGKEREFVAAIRYTGVGTYYADSVKGRFTLSRDNAKYTVYLQMNSLKPEDTAVYYCAARSYNRRARYDYWGQGTQVNVSS,high polyreactivity
5,KVQLVESGGGIVQAGGSLRLSCAASGSTFVRNAMGWYRQAPGKERELVAGITFGGGSTYYADSVKGRFTISRDNAKNTVYLQMNSLKAEDTAVYFCAKRDYSPWPAAGYPYDYDYWGQGTQVTVSS,low polyreactivity
6,QVQLVESGGGLVQAGGSLRISCAASGSTLLRNAMGWYRQAPGKERELVAVITYSGGSTYYADSVKGRFTISRDNAKNTVYLQMNSLKPEDTAVYYCAADIWYYVRYPTDAYSKFDYCGQGTQVTVSS,low polyreactivity
7,QVQLLESGGGLVQAGGSLRLSCAASGYTLRKYAMGWYRQAPGKERELVAAIRTSGGSTYYADSVKGRFTISRDNAKNTVYLQMNSLKPEDTAVYYCAAEWIFSYTWEYDYWGQGTQVTVSS,low polyreactivity
8,QVQLVESGGGLVQAGGSLRLSCAASGLIFNYNSMGWYLQAPGKEMELVAVITSGDSTNYADSVKGRFTISRDNAKNTVYLQMNSLKPEDTAVYYCNADYVYSGGRYYGKDYWFDYWGQGTQVTVSS,low polyreactivity
9,QVQLVESGGGLVQAGGSLPLSCAASGRTFGENAMGWYRQAPGKERELVAAITSGARTYYADSVKGRFTISRDNAKNTVYLQMNSLKPEDTAVYYCAKAYRRFSGGAGKQGGYYWGQGTQVTVSS,high polyreactivity
10,QVQLVESGGGLVQAGGSIRLSCAASGSIFEVNAMGWYRQAPGKERELVAGISNADSTNYADSVKGRFTISRDNAKNTVYLQMNSLKPEDTAVYYCATDLYRDPPKDLLGPEYDYWGQGTQVTVSS,low polyreactivity
11,QVQLVESGGGLVQAGGSLRLSCAASGRIFGYYAMGWYRQAPGKERELVAGIDWSGGNTYYADSVKGRFTISRDNAKNTVYLQMNSLKPEDTAVYYCNTEGGRDTAWYDYWGQGTQVTVSS,low polyreactivity
12,QVQLVESGGGLVQAGGSLRLSCAASGSIFWSYGMGWYRQAPGKERELVASTRYADSVKGRFTISRDNAKNTVYLQMNSLKPEDTAVYYCNVRYYGYRFGDDYWGQGTQVTVSS,low polyreactivity
13,QVQHVESGAGLVQAGGSLRLSCAASGRIFSRYAMGWYRQAPGKERELVAAISERGASTYYADSVKGRFTISRDNAKNTVYLQMNSLKPEDTAVYYCAAKRGSGYGYWGQGTQVTVSS,high polyreactivity
14,QVQLVESGGGLVQAGGSLRLSCAASGGIFSSYAMGWYRQAPGKERELVASISRRGTSTYYADSVKGRFTISRDNAKNTVYLQMNSLKPEDTAVYYCAAGTKYTSAVHFYYWGQGTQVTVSS,high polyreactivity
15,QVQLVESGGGLVQAGGSLRISCAASGIIFRLNAMGWYRQAPGKERELVAAIRRRGGSTYYADSVKGRFTISRDNAKNTVYLQMNSLKPEDTAVYYCAKDPHGSDFGYWGQGTQVTVSS,low polyreactivity
16,QFQLVESGGGLVQAGGSLRLSCAASGRIFFSNAMGWYRQAPGKERELVASITGGDDTNYADSVKGRFTISRDNAKNSVYLQMNSLKPEDTAFYYCAARAIPSYRWVYRFAPKYDYWGQGTQVTVSS,low polyreactivity
